The values that follow come from the supplement of paper PMC9112550, “Optimization of the antimicrobial peptide Bac7 by deep mutational scanning” (BMC Biology, 2022).

In the series the test system is Escherichia coli TOP10. Description: shrunken log2 fold change of peptide-encoding DNA abundance (4.5 h post-induction vs induction); higher = less antimicrobial activity (less host growth inhibition). The note with it: time post-induction: 4.5 h; library: site-saturation at positions 5, 18, 19, 20.
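Note: peptides expressed intracellularly from a pBAD plasmid library in pooled LB shake-flask culture, induced with 0.3% L-arabinose, DNA abundance read by NGS, three biological replicates, DESeq2 with apeglm shrinkage.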

With RRIRVRPPRLPRPRPRPDGIPRP, the “shrunken log2 fold change” value was -0.173.

As to RRIRPRPPRLPRPRPRPIPMPRP, the “shrunken log2 fold change” value was -0.0493.

Turning to RRIRPRPPRLPRPRPRPITVPRP, the “shrunken log2 fold change” value was -0.298.

RRIRQRPPRLPRPRPRPALKPRP: the “shrunken log2 fold change” value is 0.0439.

In the case of RRIRARPPRLPRPRPRPGPEPRP, the “shrunken log2 fold change” value worked out at 1.61.

Turning to RRIRTRPPRLPRPRPRPVDIPRP, the “shrunken log2 fold change” value is -0.282.

Regarding RRIRCRPPRLPRPRPRPSWPPRP, the “shrunken log2 fold change” value is -0.155.

For the sequence RRIRPRPPRLPRPRPRPDRDPRP, the “shrunken log2 fold change” value was -0.0875.

Take RRIRNRPPRLPRPRPRPWTGPRP: the “shrunken log2 fold change” value is -0.0655.

As for RRIRMRPPRLPRPRPRPHINPRP, the “shrunken log2 fold change” value was -0.339.

With RRIRMRPPRLPRPRPRPVMNPRP, the “shrunken log2 fold change” value stood at 0.196.

As to RRIRNRPPRLPRPRPRPYNEPRP, the “shrunken log2 fold change” value was -0.11.

Regarding RRIRHRPPRLPRPRPRPPDIPRP, the “shrunken log2 fold change” value was -0.0817.

Take RRIRHRPPRLPRPRPRPFMWPRP: the “shrunken log2 fold change” value was -0.137.

Take RRIRMRPPRLPRPRPRPFISPRP: the “shrunken log2 fold change” value was -0.4.

Turning to RRIRARPPRLPRPRPRPMWPPRP, the “shrunken log2 fold change” value came out at 0.527.

For RRIRLRPPRLPRPRPRPYEGPRP, the “shrunken log2 fold change” value was determined as 0.0285.

Turning to RRIRIRPPRLPRPRPRPWLFPRP, the “shrunken log2 fold change” value was 0.0545.

On to RRIRGRPPRLPRPRPRPAQYPRP, for which the “shrunken log2 fold change” value came to 0.233.

RRIRWRPPRLPRPRPRPNTVPRP: the “shrunken log2 fold change” value is 0.178.

RRIRERPPRLPRPRPRPFQYPRP: the “shrunken log2 fold change” value was -0.64.

Take RRIRFRPPRLPRPRPRPVWDPRP: the “shrunken log2 fold change” value amounted to 0.0852.

RRIRRRPPRLPRPRPRPSYDPRP: the “shrunken log2 fold change” value was -0.434.

As for RRIRRRPPRLPRPRPRPCDRPRP, the “shrunken log2 fold change” value stood at 0.0985.

For RRIRARPPRLPRPRPRPIRYPRP, the “shrunken log2 fold change” value is -0.263.

With RRIRKRPPRLPRPRPRPKTPPRP, the “shrunken log2 fold change” value was 0.477.

Take RRIRKRPPRLPRPRPRPRGMPRP: the “shrunken log2 fold change” value was 0.357.

Regarding RRIRDRPPRLPRPRPRPPMGPRP, the “shrunken log2 fold change” value is 0.283.

In the case of RRIRMRPPRLPRPRPRPAQMPRP, the “shrunken log2 fold change” value is -0.0763.

RRIRCRPPRLPRPRPRPIPSPRP: the “shrunken log2 fold change” value was -0.308.

For the sequence RRIRKRPPRLPRPRPRPYVFPRP, the “shrunken log2 fold change” value was -0.0884.

Turning to RRIRIRPPRLPRPRPRPSGAPRP, the “shrunken log2 fold change” value was found to be 0.0148.

As for RRIRRRPPRLPRPRPRPGNCPRP, the “shrunken log2 fold change” value is 0.177.

As to RRIRNRPPRLPRPRPRPPYFPRP, the “shrunken log2 fold change” value is -0.172.

Turning to RRIRGRPPRLPRPRPRPEAIPRP, the “shrunken log2 fold change” value amounted to 1.82.

In the case of RRIRLRPPRLPRPRPRPSQRPRP, the “shrunken log2 fold change” value was -0.00321.

Take RRIRTRPPRLPRPRPRPWAHPRP: the “shrunken log2 fold change” value is -0.0917.

Take RRIRGRPPRLPRPRPRPTSIPRP: the “shrunken log2 fold change” value amounted to 0.129.

Turning to RRIRFRPPRLPRPRPRPNWNPRP, the “shrunken log2 fold change” value was -0.42.

Turning to RRIRERPPRLPRPRPRPHEQPRP, the “shrunken log2 fold change” value is -0.0112.

Turning to RRIRQRPPRLPRPRPRPIPIPRP, the “shrunken log2 fold change” value is -0.104.

Turning to RRIRSRPPRLPRPRPRPEQAPRP, the “shrunken log2 fold change” value was found to be 0.289.

Turning to RRIRGRPPRLPRPRPRPIMFPRP, the “shrunken log2 fold change” value was found to be 0.382.

Turning to RRIRQRPPRLPRPRPRPCKDPRP, the “shrunken log2 fold change” value is -0.294.

On to RRIRYRPPRLPRPRPRPAMVPRP, for which the “shrunken log2 fold change” value was -0.136.

As to RRIRCRPPRLPRPRPRPGWRPRP, the “shrunken log2 fold change” value turned out to be 0.331.

In the case of RRIRARPPRLPRPRPRPLKDPRP, the “shrunken log2 fold change” value came out at 0.0838.

As for RRIRPRPPRLPRPRPRPCKNPRP, the “shrunken log2 fold change” value is -0.328.

Turning to RRIRFRPPRLPRPRPRPLAHPRP, the “shrunken log2 fold change” value was -0.13.

Turning to RRIRCRPPRLPRPRPRPFDIPRP, the “shrunken log2 fold change” value is -1.4.

Regarding RRIRQRPPRLPRPRPRPLMRPRP, the “shrunken log2 fold change” value was found to be 0.345.

In the case of RRIRPRPPRLPRPRPRPMRFPRP, the “shrunken log2 fold change” value stood at 0.0813.

For the sequence RRIRPRPPRLPRPRPRPETPPRP, the “shrunken log2 fold change” value turned out to be 0.152.

In the case of RRIRKRPPRLPRPRPRPSNNPRP, the “shrunken log2 fold change” value is -0.0375.

Take RRIRDRPPRLPRPRPRPVVNPRP: the “shrunken log2 fold change” value amounted to 0.24.

Regarding RRIRKRPPRLPRPRPRPHNNPRP, the “shrunken log2 fold change” value was -0.244.

Consider RRIRERPPRLPRPRPRPCVFPRP, for which the “shrunken log2 fold change” value came to 0.0387.

On to RRIRNRPPRLPRPRPRPGGAPRP, for which the “shrunken log2 fold change” value was 0.283.

For RRIRQRPPRLPRPRPRPSDKPRP, the “shrunken log2 fold change” value is -0.341.

With RRIRGRPPRLPRPRPRPMPWPRP, the “shrunken log2 fold change” value came out at 0.25.

Take RRIRSRPPRLPRPRPRPNAKPRP: the “shrunken log2 fold change” value was determined as 0.00752.

Regarding RRIRMRPPRLPRPRPRPWMLPRP, the “shrunken log2 fold change” value was 0.367.

With RRIRRRPPRLPRPRPRPRLDPRP, the “shrunken log2 fold change” value was found to be 0.347.

Take RRIRVRPPRLPRPRPRPSRFPRP: the “shrunken log2 fold change” value was -0.0691.

With RRIRARPPRLPRPRPRPNTTPRP, the “shrunken log2 fold change” value is -0.164.

RRIRGRPPRLPRPRPRPWRHPRP: the “shrunken log2 fold change” value is -0.0287.

Take RRIRTRPPRLPRPRPRPGPIPRP: the “shrunken log2 fold change” value came to 0.316.

In the case of RRIRIRPPRLPRPRPRPPWGPRP, the “shrunken log2 fold change” value is 0.0517.

With RRIRLRPPRLPRPRPRPGMFPRP, the “shrunken log2 fold change” value is -0.322.

For the sequence RRIRIRPPRLPRPRPRPQEWPRP, the “shrunken log2 fold change” value is -0.0108.

On to RRIRIRPPRLPRPRPRPRPYPRP, for which the “shrunken log2 fold change” value is -0.332.

Turning to RRIRGRPPRLPRPRPRPWCPPRP, the “shrunken log2 fold change” value stood at 0.236.

On to RRIRGRPPRLPRPRPRPYWAPRP, for which the “shrunken log2 fold change” value came out at 0.211.

Turning to RRIRKRPPRLPRPRPRPFLCPRP, the “shrunken log2 fold change” value was determined as 0.158.

Take RRIRGRPPRLPRPRPRPRRKPRP: the “shrunken log2 fold change” value was determined as 0.742.

For RRIRFRPPRLPRPRPRPEVPPRP, the “shrunken log2 fold change” value was -0.0248.

As to RRIRLRPPRLPRPRPRPHWMPRP, the “shrunken log2 fold change” value is -0.0826.

As to RRIRKRPPRLPRPRPRPCQRPRP, the “shrunken log2 fold change” value is -0.00088.

Turning to RRIRERPPRLPRPRPRPEQNPRP, the “shrunken log2 fold change” value was 0.139.

In the case of RRIRCRPPRLPRPRPRPLFAPRP, the “shrunken log2 fold change” value turned out to be 0.0307.

Turning to RRIRCRPPRLPRPRPRPLYYPRP, the “shrunken log2 fold change” value is -1.03.

Turning to RRIRHRPPRLPRPRPRPREKPRP, the “shrunken log2 fold change” value is -0.0164.

Regarding RRIRGRPPRLPRPRPRPHLIPRP, the “shrunken log2 fold change” value is 0.205.

As for RRIRFRPPRLPRPRPRPAATPRP, the “shrunken log2 fold change” value is 0.372.

Turning to RRIRYRPPRLPRPRPRPWTWPRP, the “shrunken log2 fold change” value is -0.106.

As for RRIRARPPRLPRPRPRPDKKPRP, the “shrunken log2 fold change” value turned out to be 0.0318.

With RRIRHRPPRLPRPRPRPGKDPRP, the “shrunken log2 fold change” value is -0.0922.

As for RRIRNRPPRLPRPRPRPCKAPRP, the “shrunken log2 fold change” value was -0.1.

As for RRIRVRPPRLPRPRPRPENNPRP, the “shrunken log2 fold change” value was 0.00554.

RRIRNRPPRLPRPRPRPKYSPRP: the “shrunken log2 fold change” value was -0.379.

With RRIRRRPPRLPRPRPRPYCVPRP, the “shrunken log2 fold change” value was -0.462.

With RRIRARPPRLPRPRPRPPYLPRP, the “shrunken log2 fold change” value is -0.188.

With RRIRRRPPRLPRPRPRPNMIPRP, the “shrunken log2 fold change” value is -0.914.

For the sequence RRIRSRPPRLPRPRPRPDYHPRP, the “shrunken log2 fold change” value was -0.271.

For RRIRDRPPRLPRPRPRPHDGPRP, the “shrunken log2 fold change” value is 0.1.

For RRIRVRPPRLPRPRPRPLLEPRP, the “shrunken log2 fold change” value is 0.0931.

For the sequence RRIRIRPPRLPRPRPRPMYPPRP, the “shrunken log2 fold change” value was -0.0642.

On to RRIRIRPPRLPRPRPRPKCLPRP, for which the “shrunken log2 fold change” value was -0.0748.

As for RRIRSRPPRLPRPRPRPDKPPRP, the “shrunken log2 fold change” value is -0.266.

In the case of RRIRQRPPRLPRPRPRPECCPRP, the “shrunken log2 fold change” value is 0.267.

For the sequence RRIRWRPPRLPRPRPRPRRAPRP, the “shrunken log2 fold change” value was found to be 0.737.

For the sequence RRIRIRPPRLPRPRPRPESQPRP, the “shrunken log2 fold change” value turned out to be 0.0553.

Take RRIRLRPPRLPRPRPRPEKGPRP: the “shrunken log2 fold change” value is 0.693.

On to RRIRTRPPRLPRPRPRPQWDPRP, for which the “shrunken log2 fold change” value is -0.0974.

On to RRIRDRPPRLPRPRPRPWHCPRP, for which the “shrunken log2 fold change” value was 0.102.

On to RRIRQRPPRLPRPRPRPVACPRP, for which the “shrunken log2 fold change” value is -0.0393.

Regarding RRIRPRPPRLPRPRPRPTCPPRP, the “shrunken log2 fold change” value was 0.0562.

RRIRWRPPRLPRPRPRPFETPRP: the “shrunken log2 fold change” value was determined as 0.0441.

In the case of RRIRYRPPRLPRPRPRPDAMPRP, the “shrunken log2 fold change” value is -0.0326.

For the sequence RRIRIRPPRLPRPRPRPVCKPRP, the “shrunken log2 fold change” value was -0.21.

Consider RRIRVRPPRLPRPRPRPIQLPRP, for which the “shrunken log2 fold change” value was -0.174.

RRIRKRPPRLPRPRPRPWYCPRP: the “shrunken log2 fold change” value is -0.339.

On to RRIRHRPPRLPRPRPRPTHHPRP, for which the “shrunken log2 fold change” value is -0.132.

RRIRVRPPRLPRPRPRPHWRPRP: the “shrunken log2 fold change” value was determined as 0.306.

On to RRIRMRPPRLPRPRPRPDVTPRP, for which the “shrunken log2 fold change” value came to 0.109.

In the case of RRIRRRPPRLPRPRPRPIHDPRP, the “shrunken log2 fold change” value amounted to 0.169.

Consider RRIRGRPPRLPRPRPRPHMEPRP, for which the “shrunken log2 fold change” value worked out at 0.0707.

As to RRIRDRPPRLPRPRPRPLGHPRP, the “shrunken log2 fold change” value was 0.0421.

Regarding RRIRSRPPRLPRPRPRPIQKPRP, the “shrunken log2 fold change” value came to 0.0496.

For the sequence RRIRQRPPRLPRPRPRPRLVPRP, the “shrunken log2 fold change” value came out at 0.211.

As to RRIRPRPPRLPRPRPRPGRCPRP, the “shrunken log2 fold change” value amounted to 0.442.

RRIRRRPPRLPRPRPRPMKHPRP: the “shrunken log2 fold change” value is -0.191.

Turning to RRIRWRPPRLPRPRPRPPIWPRP, the “shrunken log2 fold change” value stood at 0.628.

As to RRIRYRPPRLPRPRPRPGEAPRP, the “shrunken log2 fold change” value turned out to be 0.124.

As for RRIRNRPPRLPRPRPRPSDWPRP, the “shrunken log2 fold change” value was 0.0113.
